B1: RCP-1: recombinant polypeptide for culture, SEQ ID NO: 15; human vitronectin positions 1-55 and 269-459 with N-terminal methionine (protein)
chain: MDQESCKGRCTEGFNVDKKCQCDELCSYYQSCCTDYTAECKPQVTRGDVFTMPEDEPSQEECEGSSLSAVFEHFAMMQRDSWEDIFELLFWGRTSAGTRQPQFISRDWHGVPGQVDAAMAGRIYISGMAPRPSLAKKQRFRHRNRKGYRSQRGHSRGRNQNSRRPSRATWLSLFSSEESNLGANNYDDYRMDWLVPATCEPIQSVFFFSGDKYYRVNLRTRRVDTVDPPYPRSIAQYWLGCPAPGHL
modifications: Vitronectin-derived Recombinant Protein (RCP-1)
B2: RCP-11: recombinant polypeptide for culture, SEQ ID NO: 25; vitronectin positions 1-55, 269-277, 295-341, 342-373, C274S (protein)
chain: MDQESCKGRCTEGFNVDKKCQCDELCSYYQSCCTDYTAECKPQVTRGDVFTMPEDESQEESEGSEDIFELLFWGRTSAGTRQPQFISRDWHGVPGQVDAAMAGRIYISGMAPRPSLAKKQRFRHRNRKGYRSQRGHSRGRNQN
modifications: Vitronectin-derived Recombinant Protein (RCP-11)
notes: vitronectin positions 1-55, 269-277, 295-341, 342-373, C274S

How the values were obtained:
iPS cells = experiment: Cell adhesiveness evaluation 3 (RCP-1 added amount); assay type: cell-based, human; conditions: for Cell adhesion rate (%): natural vitronectin 130 pmol/cm^2 = 100%, n=3
Protocol: The cell adhesiveness was evaluated in the same manner as in <Cell adhesiveness evaluation 1>, except that RCP-1 was used after the concentration thereof was adjusted to 125 pmol/cm^2 to 1,000 pmol/cm^2 by using PBS. In Table 10, the cell adhesion rate is expressed as a ratio calculated by regarding a cell adhesion rate with respect to the cell culture surface, onto which natural vitronectin is adsorbed at a concentration of 130 pmol/cm^2, as being 100%. n=3.

[1] = Evaluation 2 about amount of residual polypeptide adsorbed (2-mercaptoethanol in PBS); assay type: physicochemical; conditions: PBS with 2-mercaptoethanol 8.96 μM to 89.6 mM, 37° C.; FIG. 7
Protocol: A cell culture surface coated with RCP-11 was prepared in the same manner as in Example 3, and then PBS containing 2-mercaptoethanol was added thereto such that the final concentration of 2-mercaptoethanol became 89.6 mM (0.7% by mass), 8.96 mM (0.07% by mass), 895.94 μM (0.007% by mass), 89.59 μM (0.0007% by mass), or 8.96 μM (0.00007% by mass), followed by incubation at 37° C. for a predetermined time. Thereafter, in the same manner as in Example 3, the amount of RCP-11 adsorbed was determined, and the residual rate of the polypeptide adsorbed was obtained. In FIG. 7, the amount of residual RCP-11 adsorbed is expressed as a ratio calculated by regarding the amount of RCP-11 adsorbed immediately after the starting of incubation as being 100%. Furthermore, “2-ME” indicates 2-mercaptoethanol.

[2] = Example 5: residual rate of RCP-11 adsorbed after 2-mercaptoethanol pretreatment; assay type: physicochemical; conditions: 24 hours
Protocol: In the same manner as in Evaluation 1 about amount of residual polypeptide adsorbed> of Example 3, RCP-11 was added to the respective wells, thereby obtaining a coated cell culture surface. Thereafter, a 2-mercaptoethanol/PBS solution of which the concentration was adjusted in advance as shown in Table 14 was added thereto, followed by incubation for 24 hours, thereby accelerating the desorption of RCP-11.
After the cells were cultured for 72 hours, the number of cells was quantified in the same manner as in <Cell growth property evaluation 1> of Example 3. In the table, each of the residual rate of RCP-11 adsorbed and the cell growth rate is expressed as a ratio calculated by regarding the residual rate of the polypeptide adsorbed and the cell growth rate in the case where the pretreatment with PBS is performed as being 100%.

Molecule	Cell adhesion rate (%) (iPS cells; added amount 125 pmol/cm^2)	Cell adhesion rate (%) (iPS cells; added amount 250 pmol/cm^2)	Cell adhesion rate (%) (iPS cells; added amount 500 pmol/cm^2)	Cell adhesion rate (%) (iPS cells; added amount 1000 pmol/cm^2)	adhesiveness of iPS cells (iPS cells; added amount equal to or greater than 125 pmol/cm^2)	amount of residual RCP-11 versus 2-mercaptoethanol concentration [1]	Residual rate of RCP-11 adsorbed (%) ([2]; pretreatment 2-Mercaptoethanol 8.96 μM (0.00007% by mass), PBS pretreatment = 100%)	Residual rate of RCP-11 adsorbed (%) ([2]; pretreatment 2-Mercaptoethanol 895.94 μM (0.007% by mass), PBS pretreatment = 100%)	Residual rate of RCP-11 adsorbed (%) ([2]; pretreatment 2-Mercaptoethanol 89.6 mM (0.7% by mass), PBS pretreatment = 100%)	Residual rate of RCP-11 adsorbed (%) ([2]; pretreatment PBS, this = 100%)
B1	90.3 ± 25.3%	89.2 ± 10.6%	108.8 ± 23.0%	98.5 ± 17.2%	equivalent to the cell adhesion rate of the natural vitronection					
B2						tends to decrease as the concentration of 2-mercaptoethanol increases	82.2%	77.4%	56.6%	100%
